Patent US20210205408A1

Biological target: PRX302 (modified proaerolysin in which the furin site is replaced with a PSA-specific cleavage site) (Aeromonas hydrophilia (engineered variant)) (UniProt P09167)
Experiment: cell-based or functional assay

## Prostate Specific Antigen (PSA), enzymatically active (from UniProt P07288 25-261) (enzyme)
  hemolysis (red blood cells) after pre-incubation of PRX302 with enzymatically active PSA in aqueous buffer: 45 % hemolysis
